Assay results taken from US20170362327A1.

Biological target: human TrkA on the surface of TF-1 cells (human), P04629
Assay: cell-based or functional assay

human TrkA on the surface of TF-1 cells (human), P04629, sequence (P04629 33-796): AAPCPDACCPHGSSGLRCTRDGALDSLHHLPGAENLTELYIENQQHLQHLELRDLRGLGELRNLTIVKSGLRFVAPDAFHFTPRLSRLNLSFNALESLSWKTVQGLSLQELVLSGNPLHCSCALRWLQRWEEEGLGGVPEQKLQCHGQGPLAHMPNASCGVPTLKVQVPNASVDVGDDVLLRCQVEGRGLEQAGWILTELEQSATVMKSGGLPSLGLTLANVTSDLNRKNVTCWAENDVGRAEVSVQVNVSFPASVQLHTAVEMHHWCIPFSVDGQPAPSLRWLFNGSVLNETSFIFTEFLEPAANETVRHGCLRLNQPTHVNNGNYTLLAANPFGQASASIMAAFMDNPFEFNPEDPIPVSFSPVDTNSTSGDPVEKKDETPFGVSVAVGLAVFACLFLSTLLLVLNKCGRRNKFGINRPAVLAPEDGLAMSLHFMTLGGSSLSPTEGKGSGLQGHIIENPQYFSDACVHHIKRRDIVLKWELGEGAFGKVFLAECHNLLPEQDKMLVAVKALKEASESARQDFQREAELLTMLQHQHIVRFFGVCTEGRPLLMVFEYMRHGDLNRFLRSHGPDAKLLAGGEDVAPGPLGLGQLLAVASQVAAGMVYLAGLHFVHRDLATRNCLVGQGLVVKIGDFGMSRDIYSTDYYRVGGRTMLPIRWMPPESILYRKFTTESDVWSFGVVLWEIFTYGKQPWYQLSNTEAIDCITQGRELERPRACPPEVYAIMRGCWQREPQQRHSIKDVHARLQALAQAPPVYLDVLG

- TF-1 cell proliferation assay IC50 (beta-NGF induced proliferation): 0.23 µg/mL
B1: MNAC13 mouse antibody (antibody, mouse IgG1, kappa)
heavy: EVKLVESGGGLVQPGGSLKLSCAASGFTFSTYTMSWARQTPEKRLEWVAYISKGGGSTYYPDTVKGRFTISRDNAKNTLYLQMSSLKSEDTALYYCARGAMYGNDFFYPMDYWGQGTSVTVSSKTTPPSVYPLAPGSAAQTNSMVTLGCLVKGYFPEPVTVTWNSGSLSSGVHTFPAVLESDLYTLSSSVTVPSSPRPSETVTCNVAHPASSTKVDKKIVPRDCGCKPCICTVPEVSSVFIFPPKPKDVLTITLTPKVTCVVVDISKDDPEVQFSWFVDDVEVHTAQTQPREEQFNSTFRSVSELPIMHQDWLNGKEFKCRVNSAAFPAPIEKTISKTKGRPKAPQVYTIPPPKEQMAKDKVSLTCMITDFFPEDITVEWQWNGQPAENYKNTQPIMNTNGSYFVYSKLNVQKSNWEAGNTFTCSVLHEGLHNHHTEKSLSHSPGK
light: QIVLTQSPAIMSASLGEEITLTCSASSSVSYMHWYQQKSGTSPKLLIYTTSNLASGVPSRFSGSGSGTFYSLTISSVEAEDAADYYCHQWSSYPWTFGGGTKLEIKADAAPTVSIFPPSSEQLTSGGASVVCFLNNFYPKDINVKWKIDGSERQNGVLNSWTDQDSKDSTYSMSSTLTLTKDEYERHNSYTCEATHKTSTSPIVKSFNRNEC
